Experiment [1] deals with T1, recombinant hCTLA-4-mFc (human CTLA-4 extracellular domain with a C-terminal Fc portion of mouse IgG2a) (human).
T1 construct: also called dimeric CTLA-4 protein
The experiment in a line: competition ELISA, 400 pM hCTLA-4-mFc on plate-coated hB7-2-hIgG1-6His. (ELISA stands for enzyme-linked immunosorbent assay.)

In experiment [2] the target is T1, recombinant hCTLA-4-mFc (human CTLA-4 …). The experiment in a line: competition ELISA, 200 pM hCTLA-4-mFc on plate-coated hB7-1-hIgG1-6His.
The target is the same in experiment [3]. The experiment in a line: competition ELISA, 200 pM hCTLA-4-mFc on plate-coated hB7-1-hIgG1-6His; * value below theoretical bottom of assay.
For experiment [4], the target named is T2, soluble human CTLA-4 expressed with a C-terminal myc-myc-polyhistidine tag (human).
T2 construct: soluble protein; also called hCTLA-4.mmh; hCTLA4.mmh
T2 sequence (chain, as listed by the source limits assumed): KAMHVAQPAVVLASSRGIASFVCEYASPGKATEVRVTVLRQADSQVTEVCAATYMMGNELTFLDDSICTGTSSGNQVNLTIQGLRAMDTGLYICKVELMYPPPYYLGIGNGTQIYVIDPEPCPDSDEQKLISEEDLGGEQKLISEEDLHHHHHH
The experiment in a line: SPR, mAb capture, 25 C. A general note: Surface plasmon resonance follows binding to a sensor surface in real time, without labels.

Experiment [5] addresses T3, soluble Macaca fascicularis CTLA-4 expressed with a C-terminal myc-myc-polyhistidine tag (Macaca fascicularis).
T3 construct: soluble protein; also called mf CTLA-4.mmh; mfCTLA4.mmh
T3 chain: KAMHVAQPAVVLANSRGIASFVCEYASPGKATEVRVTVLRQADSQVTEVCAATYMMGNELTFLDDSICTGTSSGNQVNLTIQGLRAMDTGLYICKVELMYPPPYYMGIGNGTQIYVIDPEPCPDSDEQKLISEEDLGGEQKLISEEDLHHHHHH
The experiment in a line: SPR, mAb capture, 25 C.

In experiment [6] the target is T4, human CTLA-4 (amino acids M1-N223) on stably transfected VI-fibroblast cells (human, UniProt P16410 36-223).
T4 construct: also called VI-fibroblast/hCTLA-4
T4 sequence (P16410 36-223 limits assumed): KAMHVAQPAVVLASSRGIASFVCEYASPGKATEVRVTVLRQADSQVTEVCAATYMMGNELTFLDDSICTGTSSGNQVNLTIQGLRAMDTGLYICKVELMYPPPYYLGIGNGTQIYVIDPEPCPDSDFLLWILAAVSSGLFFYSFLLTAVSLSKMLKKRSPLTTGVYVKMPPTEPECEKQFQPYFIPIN
The experiment in a line: ECL cell binding, VI-fibroblast/hCTLA-4 cells.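 Note: antibodies bound to the cells on carbon electrode plates, detected via SULFO-TAG anti-IgG secondary (1 h, RT), electrochemiluminescence read as RLU over a concentration range.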

Experiment [7] deals with T1, recombinant hCTLA-4-mFc (human CTLA-4 …). The experiment in a line: competition ELISA, 400 pM hCTLA-4-mFc on plate-coated hB7-2-hIgG1-6His; * value below theoretical bottom of assay.

T1 sequence (chain, as listed by the source limits assumed): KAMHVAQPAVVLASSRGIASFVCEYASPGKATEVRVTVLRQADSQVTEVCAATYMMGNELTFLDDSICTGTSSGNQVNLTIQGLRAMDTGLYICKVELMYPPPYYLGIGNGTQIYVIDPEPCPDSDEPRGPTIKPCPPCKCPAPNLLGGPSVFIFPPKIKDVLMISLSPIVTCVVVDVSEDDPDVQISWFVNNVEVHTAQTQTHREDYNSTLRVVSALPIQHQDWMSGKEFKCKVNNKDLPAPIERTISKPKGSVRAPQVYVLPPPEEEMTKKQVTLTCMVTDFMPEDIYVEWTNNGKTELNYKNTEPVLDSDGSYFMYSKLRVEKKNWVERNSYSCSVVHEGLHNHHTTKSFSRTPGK

B1: H1H19281P (antibody, human IgG1, V domains shown)
VH: QVQLVESGGGVVQPGRSLRLSCAASGLTFSYYGMHWVRQAPGKGLEWVAVISYDGSNKYYADSVKGRFTISRDNSKNTLYLQMNSLRAEDAAVYYCAKDLGGDDYYGMDVWGQGTTVTVSS
VL: EIVLTQSPGTLSLSPGERATLSCRASQSVSRTYLAWYQQKPGQAPRLLIYGAFSRATGIPDRFSGSGSGTDFTLTISRLEPEDFAVYYCQQYGSSPYTFGQGTKLEIK
In the case of B1, the “% Blockade” value in experiment [1] came out at 100%. Also, the “% Blockade” value in experiment [2] came out at 99%. Also, the half-inhibitory concentration (IC50) (as a rule, the concentration needed to halve the response being measured) in experiment [3] was 0.094 nM. Moreover, in experiment [4], the Kd (as a rule, the constant that tells how readily two partners part at equilibrium) worked out at 1.53 nM; the off-rate constant (koff) (commonly the rate constant with which the complex falls apart) worked out at 0.000741 s⁻¹; the kon (commonly a measure of how fast the partners come together) came to 484000 M⁻¹ s⁻¹; the t1/2 worked out at 15.6 min. Besides, in experiment [5], the dissociation constant Kd amounted to 2.14 nM, the koff is 0.00101 s⁻¹, the kon was 472000 M⁻¹ s⁻¹ and the t1/2 was determined as 11.5 min. Besides, in experiment [6], the EC50 (as a rule, the concentration that produces a half-maximal response) was 0.075 nM and the “ratio of RLU signal to parental VI-fibroblast at 0.4 nM Ab” value came out at 23 ratio. In addition, the IC50 in experiment [7] was 0.19 nM.

The record behind these values is patent US20210040232A1 (Regeneron, published 2021).
